Source: paper PMC11125907, “A Portable Readout System for Biomarker Detection with Aptamer-Modified CMOS ISFET Array”

Molecular target: cardiac troponin I (cTnI) (human, UniProt P19429 2-210)
Assay: ISFET aptasensor; 1 mM Mg2+; AC mode 2.4 V, 10 kHz 0.1 Vp-p; LoD 3.27 ng/mL, linear range 3.27-625 ng/mL (no Kd); 10 mM Tris-HCl pH 7.7, 8 mM NaCl, 1 mM MgCl2; temperature not stated
Conditions: protein: recombinant

cardiac troponin I (cTnI), sequence (P19429 2-210): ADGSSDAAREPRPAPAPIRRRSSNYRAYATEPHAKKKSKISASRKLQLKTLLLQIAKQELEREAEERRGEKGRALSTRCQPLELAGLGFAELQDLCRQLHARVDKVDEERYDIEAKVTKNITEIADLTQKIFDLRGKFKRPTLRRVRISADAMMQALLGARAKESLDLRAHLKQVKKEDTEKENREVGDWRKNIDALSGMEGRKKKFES

B1: Tro6 (ssDNA)
DNA: CGCATGCCAAACGTTGCCTCATAGTTCCCTCCCCGTGTCC
modifications: 5'-SH (thiol)
  binding result: binds
